Measured values taken from publication PMC8257531.

Experiments:
[1] = co-localisation with ARL15-mClover3, SK-RC-39 cells; conditions: glycan lost; control: wild-type CNNM3-mCherry
[2] = fluorescence imaging, SK-RC-39 cells, ER/Golgi markers; conditions: glycan lost; control: wild-type CNNM3-mCherry

B1: CNNM3: N73A (protein)
parent chain: MAAAVAAAGRLGWLFAALCLGNAAGEAAPGPRVLGFCLEEDGAAGAGWVRGGAARDTPDATFLLRLFGPGFANSSWSWVAPEGAGCREEAASPAGEWRALLRLRLRAEAVRPHSALLAVRVEPGGGAAEEAAPPWALGLGAAGLLALAALARGLQLSALALAPAEVQVLRESGSEAERAAARRLEPARRWAGCALGALLLLASLAQAALAVLLYRAAGQRAVPAVLGSAGLVFLVGEVVPAAVSGRWTLALAPRALGLSRLAVLLTLPVALPVGQLLELAARPGRLRERVLELARGGGDPYSDLSKGVLRCRTVEDVLTPLEDCFMLDASTVLDFGVLASIMQSGHTRIPVYEEERSNIVDMLYLKDLAFVDPEDCTPLSTITRFYNHPLHFVFNDTKLDAVLEEFKRGKSHLAIVQKVNNEGEGDPFYEVLGLVTLEDVIEEIIRSEILDESEDYRDTVVKRKPASLMAPLKRKEEFSLFKVSDDEYKVTISPQLLLATQRFLSREVDVFSPLRISEKVLLHLLKHPSVNQEVRFDESNRLATHHYLYQRSQPVDYFILILQGRVEVEIGKEGLKFENGAFTYYGVSALTVPSSVHQSPVSSLQPIRHDLQPDPGDGTHSSAYCPDYTVRALSDLQLIKVTRLQYLNALLATRAQNLPQSPENTDLQVIPGSQTRLLGEKTTTAAGSSHSRPGVPVEGSPGRNPGV
localisation_or_trafficking [1]: decreases
localisation_or_trafficking [2]: abolishes
